Test [1] addresses Gαi3 transiently overexpressed in COS7 cells. Put plainly: cAMP agarose precipitation from COS7 lysates after 15 min forskolin, immunoblot densitometry. In general terms: A western blot detects proteins with antibodies after separation by electrophoresis.
Test [2] deals with Gαi of δOR-HEK293 cells (endogenous, receptor-activated). Put plainly: cell-based or functional assay.

Data on two substances can be found in US20150005237A1, “PEPTIDIC INHIBITOR OF SIGNAL TRANSMISSION FROM G-ALPHA-S TO G-ALPHA-I-COUPLED RECEPTOR CASCADES” (UNIVERSITÄT INNSBRUCK, priority 2011, published 2015).

As for “endogenous PKA regulatory subunits (R/Reg) of COS7 cells, bound to 2AHA-cAMP-coupled agarose beads”, the fold enrichment of R:Gαi3 complexes (forskolin pre-treatment against basal conditions) in test [1] worked out at 3.8 fold.

In the case of “endogenous PKA regulatory subunits (R; RII/RegII) of δOR-HEK293 cells, cAMP-activated”, in test [2], the sensitivity of the MAPK pathway (SNC80-mediated ERK1/2 phosphorylation) to stimulation by the δOR agonist was 7 fold.
